# Data reported in patent publication US20100210511A1, “Combination VEGFR2 Therapy with Temozolomide” (Bristol-Myers Squibb Company, priority 2009, published 2010).
# B1: Compound 1: VEGFR2 specific inhibitor represented by SEQ ID NO: 4, 10Fn3-based, modified with a single branched 40 kDa PEG at the C-terminal cysteine (protein)
# chain: GEVVAATPTSLLISWRHPHFPTRYYRITYGETGGNSPVQEFTVPLQPPTATISGLKPGVDYTITVYAVTDGRNGRLLSIPISINYRTEIDKPCQ
# modifications: branched 40 kDa PEG at C-terminal cysteine
# Key:
# [1] = test system: U87vIIILuc Glioblastoma Cells; assay: Survival of NOD-SCID mice intracranially implanted with U87vIIILuc glioblastoma cells (Example 2); assay type: in vivo; conditions: intracranial U87vIIILuc; Compound 1 60 mg/kg IP three times per week; TMZ 34 mg/kg orally once daily for five days; 6 mice per group
# From the text: (§1) Tumor Implantation. 9 week-old male NOD-SCID mice (Charles River Laboratories, Wilmington, Mass., USA) were anesthetized by 2% isoflurane. 5×10^4 U87vIIIluc tumor cells were implanted intracranially using the following stereotactic coordinates: 0.5 mm posterior, 2.5 mm lateral, and 3.5 mm intraparenchymal Animal care was kept in strict accordance with the institutional animal care and use committee of Massachusetts General Hospital.
# (§2) Drug Administration. After randomization, 24 mice were divided into 4 groups (PBS, Compound 1 only, TMZ only, and Compound 1+TMZ) with 6 mice per group. PBS and Compound 1 (60 mg/kg) were delivered intraperitoneally in 200 ul IP volumes three times per week throughout the study until mice reached established criteria for euthanasia. Temozolomide (TMZ) was delivered orally (34 mg/kg) once daily for five days.
# (§3) Results are shown in FIG. 1 (Compound 1=VEGFR2 specific inhibitor represented by SEQ ID NO: 4; Compound 2=TMZ; PBS=phosphate buffered saline (vehicle control)). The Y-axis indicates percent survival within each group over the length of the study Animals were followed for survival and sacrificed at the first sign of morbidity. Mean survival was 19, 29, 32 and 47 days for PBS, Compound 1, TMZ, and Compound 1+TMZ, respectively.
# [2] = test system: U87vIIILuc Glioblastoma Cells; assay: Bioluminescent imaging (BLI) of U87vIIILuc tumor growth (Example 2); assay type: in vivo, NOD-SCID mice; conditions: Compound 1 60 mg/kg IP 3x/week, TMZ 34 mg/kg orally QD×5
# From the text: as §1, §2
# Scanning Mice were anesthetized using 1-2% isoflurane before intraperitoneal injection of D-luciferin salt (150 mg/kg in 200 ul PBS; Caliper Life Sciences, Hopkinton Mass.). Bioluminescent imaging (BLI) was performed in a high sensitivity, cooled CCD camera (IVIS®, Xenogen) at five-minute intervals until peak values were recorded for all mice. BLI imaging was performed on days 6, 13, 20 and 26.
# Image Analysis. Living Image® software (Xenogen) was used for image capture and signal quantification. Imaging schedules are described in the treatment groups. […]
# [3] = test system: CD31 (endothelial blood vessel formation marker); assay: Immunohistochemical staining for CD31 on brain tissue sections (microvascular density); assay type: in vivo, NOD-SCID mice; conditions: Day 14 IHC analysis; compared to TMZ or PBS groups
# Procedure: IHC staining for CD31 was performed on paraffin-embedded mouse brain tissue sections using Rat on mouse HRP-Polymer® (Biocare Medical). Briefly, sections were deparaffinized, rehydrated and treated with peroxidase (PEROXIDAZED 1, Biocare Medical) for 5 min at room temperature. To expose antigens, sections were treated with trypsin (CAREZYME 1®, Biocare Medical) for 10 min at 37° C. Unspecific protein was blocked by using Rodent Block M® (Biocare Medical) for 30 min. Thereafter, sections were incubated with rat monoclonal anti-CD31 (1:50, Biocare Medical) antibody for 2 h at room temperature. Subsequently, sections were incubated with Rat Probe® (Biocare Medical) for 15 min at room temperature, followed by incubation with Rat-Polymer HRP® (Biocare Medical) for 20 min at room temperature.
# To visualize antigens in the tissue, DAB chromogen substrate (Biocare Medical) were used for 5 min Finally, sections were lightly counter-stained with Mayer's hematoxylin. For a negative control, the incubation step with primary antibody was omitted.
# Immunohistochemical staining against CD31 (endothelial blood vessel formation marker), Ki67 (cell proliferation marker) or cleaved-caspase 3 (cellular apoptosis marker) was performed on paraffin-embedded brain tissue sections. […]
# [4] = test system: U87vIIILuc Glioblastoma Cells; assay: Survival in U87vIIILuc glioma model, triple administration with radiation therapy (Example 3); assay type: in vivo, NOD-SCID mice; conditions: radiation insensitive glioblastoma model; compared to RT alone or standard of care (TMZ+RT)
# Procedure: Tumor implantation was performed as described above in Example 2.
# Drug Administration. After randomization, 32 mice were divided into 4 groups (PBS, Radiation Therapy (RT) only, Compound 2 & RT, and Compound 1+Compound 2 & RT) with 8 mice per group. PBS and Compound 1 (60 mg/kg) were delivered intraperitoneally in 200 ul IP volumes three times per week throughout the study until mice reached established criteria for euthanasia. Compound 2 (TMZ) was delivered orally (34 mg/kg) once daily for five days. Compound 2 and RT treatments were initiated after the third dose of Compound 1.
# Radiation Therapy. Mice were shielded in a custom-designed block with an aperture of 0.8 cm. After anesthetic induction (ketamine 118 mg/kg i.p.+xylazine 11.8 mg/kg i.p.), mice were irradiated to a total dose of 10 Gy in three daily fractions. 10 Gy were experimentally determined to be the highest tolerable dose for this model.
# as §3, with “FIG. 5” for “FIG. 1”, “2=TMZ; RT=Radiation Therapy;” for “2=TMZ;”, “was 22, 23, 33” for “was 19, 29, 32”, “PBS, Radiation Therapy,” for “PBS,”, “Compound 2 & RT,” for “Compound 1, TMZ,”, “Compound 1+Compound 2 & RT,” for “Compound 1+TMZ,”
Molecule,Mean survival [1] [days],"Day 13 mean BLI values (photons/sec×10^6) increased by, fold [2]",Blood vessel formation by CD31 staining [3],Survival benefit (in words) [4]
"Cn1nnc2c(C(N)=O)ncn2c1=O [TMZ, temozolomide]",32,6.17×10^1 fold,–,–
B1,29,1.79×10^2 fold,strongly reduced blood vessel formation,can enhance survival
